B1: Hammerhead Ribozyme (parent)
chain: ACCGGAUGUGCUUUCCGGUCUGAUGAGUCCGUGAGGACGAAACAG

Variants of: B1
Assay: self-cleavage, relative activity (ratio to wild type); higher = more cleavage; co-transcriptional

| Variant | self-cleavage |
| --- | --- |
| ACCGGAUGUGCUUUCCGUUCUGAUGAGUCCGUGAGGACGAAUCAG [G18U A42U] | 0.339 |
| ACCGGAUGUGCUUUCCGUUCUGAUGAGUCCGUGAGGACGAACCAG [G18U A42C] | 0.371 |
| ACCGGAUGUGCUUUCCGUUCUGAUGAGUCCGUGAGGACGAAGCAG [G18U A42G] | 0.37 |
| ACCGGAUGUGCUUUCCGUUCUGAUGAGUCCGUGAGGCCGAAACAG [G18U A37C] | 0.567 |
| ACCGGAUGUGCUUUCCGUUCUGAUGAGUCCGUGAGGGCGAAACAG [G18U A37G] | 0.629 |
| ACCGGAUGUGCUUUCCGUUCUGAUGAGUCCGUGAGGUCGAAACAG [G18U A37U] | 0.494 |
| ACCGGAUGUGCUUUCCGUUCUGAUGAGUCCUUGAGGACGAAACAG [G18U G31U] | 0.781 |
| ACCGGAUGUGCUUUCCGUUCUGAUGAGUCCAUGAGGACGAAACAG [G18U G31A] | 0.905 |
| ACCGGAUGUGCUUUCCGUUCUGAUGAGUCCCUGAGGACGAAACAG [G18U G31C] | 0.685 |
| ACCGGAUGUGCUUUCCGCUCUGAUGAGUCCGUGACGACGAAACAG [G18C G35C] | 0.35 |
| ACCGGAUGUGCUUUCCGCUCUGAUGAGUCCGUGAAGACGAAACAG [G18C G35A] | 0.537 |
| ACCGGAUGUGCUUUCCGCUCUGAUGAGUCCGUGAUGACGAAACAG [G18C G35U] | 0.399 |
| ACCGGAUGUGCUUUCCGUUCUGAUGACUCCGUGAGGACGAAACAG [G18U G27C] | 0.427 |
| ACCGGAUGUGCUUUCCGUUCUGAUGAAUCCGUGAGGACGAAACAG [G18U G27A] | 0.567 |
| ACCGGAUGUGCUUUCCGUUCUGAUGAUUCCGUGAGGACGAAACAG [G18U G27U] | 0.53 |
| ACCGGAUGUGCUUUCCGUUCUGCUGAGUCCGUGAGGACGAAACAG [G18U A23C] | 0.367 |
| ACCGGAUGUGCUUUCCGUUCUGUUGAGUCCGUGAGGACGAAACAG [G18U A23U] | 0.342 |
| ACCGGAUGUGCUUUCCGUUCUGGUGAGUCCGUGAGGACGAAACAG [G18U A23G] | 0.288 |
| ACCGGAUGUGCUUUCCGUUCUGAUGCGUCCGUGAGGACGAAACAG [G18U A26C] | 0.328 |

| Variant | self-cleavage |
| --- | --- |
| ACCGGAUGUGCUUUCCGUUCUGAUGUGUCCGUGAGGACGAAACAG [G18U A26U] | 0.368 |
| ACCGGAUGUGCUUUCCGUUCUGAUGGGUCCGUGAGGACGAAACAG [G18U A26G] | 0.339 |
| ACCGGAUGUGCUUUCCGUACUGAUGAGUCCGUGAGGACGAAACAG [G18U U19A] | 0.34 |
| ACCGGAUGUGCUUUCCGUGCUGAUGAGUCCGUGAGGACGAAACAG [G18U U19G] | 0.291 |
| ACCGGAUGUGCUUUCCGUCCUGAUGAGUCCGUGAGGACGAAACAG [G18U U19C] | 0.487 |
| ACCGGAUGUGCUUUCCGUUCUGAUGAGUCCGUCAGGACGAAACAG [G18U G33C] | 0.602 |
| ACCGGAUGUGCUUUCCGUUCUGAUGAGUCCGUAAGGACGAAACAG [G18U G33A] | 0.948 |
| ACCGGAUGUGCUUUCCGUUCUGAUGAGUCCGUUAGGACGAAACAG [G18U G33U] | 0.705 |
| ACCGGAUGUGCUUUCCGCUCUGAUGAGUCCGUGAGCACGAAACAG [G18C G36C] | 0.352 |
| ACCGGAUGUGCUUUCCGCUCUGAUGAGUCCGUGAGAACGAAACAG [G18C G36A] | 0.347 |
| ACCGGAUGUGCUUUCCGCUCUGAUGAGUCCGUGAGUACGAAACAG [G18C G36U] | 0.337 |
| ACCGGAUGUGCUUUCCGUUCUGAUGAGUCCGGGAGGACGAAACAG [G18U U32G] | 0.802 |
| ACCGGAUGUGCUUUCCGUUCUGAUGAGUCCGCGAGGACGAAACAG [G18U U32C] | 0.857 |
| ACCGGAUGUGCUUUCCGUUCUGAUGAGUCCGAGAGGACGAAACAG [G18U U32A] | 0.646 |
| ACCGGAUGUGCUUUCCGUUGUGAUGAGUCCGUGAGGACGAAACAG [G18U C20G] | 0.382 |
| ACCGGAUGUGCUUUCCGUUUUGAUGAGUCCGUGAGGACGAAACAG [G18U C20U] | 0.437 |
| ACCGGAUGUGCUUUCCGUUAUGAUGAGUCCGUGAGGACGAAACAG [G18U C20A] | 0.326 |
| ACCGGAUGUGCUUUCCGCUCGGAUGAGUCCGUGAGGACGAAACAG [G18C U21G] | 0.285 |
| ACCGGAUGUGCUUUCCGCUCAGAUGAGUCCGUGAGGACGAAACAG [G18C U21A] | 0.333 |

| Variant | self-cleavage |
| --- | --- |
| ACCGGAUGUGCUUUCCGCUCCGAUGAGUCCGUGAGGACGAAACAG [G18C U21C] | 0.284 |
| ACCGGAUGUGCUUUCCGCUCUGAUGAGUCCGUGAGGACGAAACAU [G18C G45U] | 0.374 |
| ACCGGAUGUGCUUUCCGCUCUGAUGAGUCCGUGAGGACGAAACAC [G18C G45C] | 0.383 |
| ACCGGAUGUGCUUUCCGCUCUGAUGAGUCCGUGAGGACGAAACAA [G18C G45A] | 0.393 |
| ACCGGAUGUGCUUUCCGUUCUGAUGAGGCCGUGAGGACGAAACAG [G18U U28G] | 0.581 |
| ACCGGAUGUGCUUUCCGUUCUGAUGAGCCCGUGAGGACGAAACAG [G18U U28C] | 0.351 |
| ACCGGAUGUGCUUUCCGUUCUGAUGAGACCGUGAGGACGAAACAG [G18U U28A] | 0.461 |
| ACCGGAUGUGCUUUCCGUUCUGAUGAGUCCGUGAGGAGGAAACAG [G18U C38G] | 0.442 |
| ACCGGAUGUGCUUUCCGUUCUGAUGAGUCCGUGAGGAAGAAACAG [G18U C38A] | 0.527 |
| ACCGGAUGUGCUUUCCGUUCUGAUGAGUCCGUGAGGAUGAAACAG [G18U C38U] | 0.661 |
| ACCGGAUGUGCUUUCCGUUCUGAUGAGUCCGUGAGGACGAAACCG [G18U A44C] | 0.431 |
| ACCGGAUGUGCUUUCCGUUCUGAUGAGUCCGUGAGGACGAAACUG [G18U A44U] | 0.368 |
| ACCGGAUGUGCUUUCCGUUCUGAUGAGUCCGUGAGGACGAAACGG [G18U A44G] | 0.942 |
| ACCGGAUGUGCUUUCCGUUCUGAUGAGUCCGUGAGGACGAAACAG [G18U] | 0.875 |
| ACCGGAUGUGCUUUCCGUUCUGAUGAGUCCGUGAGCACGAAACAG [G18U G36C] | 0.308 |
| ACCGGAUGUGCUUUCCGUUCUGAUGAGUCCGUGAGUACGAAACAG [G18U G36U] | 0.425 |
| ACCGGAUGUGCUUUCCGUUCUGAUGAGUCCGUGAGAACGAAACAG [G18U G36A] | 0.621 |
| ACCGGAUGUGCUUUCCGUUCUGAUGAGUCCGUGAGGACGCAACAG [G18U A40C] | 0.394 |
| ACCGGAUGUGCUUUCCGUUCUGAUGAGUCCGUGAGGACGUAACAG [G18U A40U] | 0.345 |
